Each block holds one substance with its values, some of them ahead of it.
Key:
Experiment in all cases: mass photometry; (N8-)CRL2^FEM1B wild type or mutant alone; 2 µL of 10 nM protein added to 18 μL of 50 mM HEPES pH 7.5, 150 mM NaCl
[1] = target: CRL2^FEM1B complex with FEM1B^F549R, unneddylated (human) (UniProt Q13617)
[2] = target: CRL2^FEM1B complex with FEM1B^F549S, unneddylated (human) (UniProt Q13617)
[3] = target: CRL2^FEM1B complex with FEM1B^F549T, unneddylated (human) (UniProt Q13617)

stoichiometry N [1]: 2
Substance: CRL2^FEM1B complex with FEM1B^F549R, unneddylated (from UniProt Q13617 1-745; P62877 1-108; Q15370 1-104; Q15369 17-112; Q9UK73 1-627)

stoichiometry N [2]: 2
Substance: CRL2^FEM1B complex with FEM1B^F549S, unneddylated (from UniProt Q13617 1-745; P62877 1-108; Q15370 1-104; Q15369 17-112; Q9UK73 1-627)

stoichiometry N [3]: 2
Substance: CRL2^FEM1B complex with FEM1B^F549T, unneddylated (from UniProt Q13617 1-745; P62877 1-108; Q15370 1-104; Q15369 17-112; Q9UK73 1-627)

Reference: article PMC10943247
